According to US20190358295A1:

Assays:
[1] = biological target: Mst1r (macrophage stimulating 1 receptor/RON kinase) on mouse erythroid progenitor cells (mouse) (UniProt Q62190); experiment: cell-based or functional assay
[2] = biological target: IL-17Ra on mouse bone marrow erythroid progenitor cells (mouse) (UniProt Q60943); experiment: cell-based or functional assay
UniProt Q60943, sequence (Q60943 32-864): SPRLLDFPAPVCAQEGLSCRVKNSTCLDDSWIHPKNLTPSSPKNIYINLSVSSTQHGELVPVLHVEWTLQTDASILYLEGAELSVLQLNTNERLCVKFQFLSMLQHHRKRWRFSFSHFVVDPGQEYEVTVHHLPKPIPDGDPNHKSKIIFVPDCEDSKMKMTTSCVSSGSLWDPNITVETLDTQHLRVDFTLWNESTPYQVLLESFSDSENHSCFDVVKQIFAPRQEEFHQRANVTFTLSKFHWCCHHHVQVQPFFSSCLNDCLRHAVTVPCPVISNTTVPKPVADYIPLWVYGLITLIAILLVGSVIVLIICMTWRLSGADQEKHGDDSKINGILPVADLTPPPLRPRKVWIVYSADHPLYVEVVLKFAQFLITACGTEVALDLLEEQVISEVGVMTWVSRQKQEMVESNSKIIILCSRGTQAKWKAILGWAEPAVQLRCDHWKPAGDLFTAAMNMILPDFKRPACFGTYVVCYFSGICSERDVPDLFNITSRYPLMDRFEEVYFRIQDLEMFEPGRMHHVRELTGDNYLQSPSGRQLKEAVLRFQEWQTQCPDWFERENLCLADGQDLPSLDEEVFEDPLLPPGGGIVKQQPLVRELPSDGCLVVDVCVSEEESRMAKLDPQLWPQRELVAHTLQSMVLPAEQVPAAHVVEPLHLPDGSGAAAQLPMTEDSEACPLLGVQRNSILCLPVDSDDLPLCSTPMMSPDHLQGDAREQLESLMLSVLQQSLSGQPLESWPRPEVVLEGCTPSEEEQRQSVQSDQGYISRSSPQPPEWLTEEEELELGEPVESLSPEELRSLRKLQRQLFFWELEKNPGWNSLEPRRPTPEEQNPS

UniProt Q62190, sequence (Q62190 24-1378): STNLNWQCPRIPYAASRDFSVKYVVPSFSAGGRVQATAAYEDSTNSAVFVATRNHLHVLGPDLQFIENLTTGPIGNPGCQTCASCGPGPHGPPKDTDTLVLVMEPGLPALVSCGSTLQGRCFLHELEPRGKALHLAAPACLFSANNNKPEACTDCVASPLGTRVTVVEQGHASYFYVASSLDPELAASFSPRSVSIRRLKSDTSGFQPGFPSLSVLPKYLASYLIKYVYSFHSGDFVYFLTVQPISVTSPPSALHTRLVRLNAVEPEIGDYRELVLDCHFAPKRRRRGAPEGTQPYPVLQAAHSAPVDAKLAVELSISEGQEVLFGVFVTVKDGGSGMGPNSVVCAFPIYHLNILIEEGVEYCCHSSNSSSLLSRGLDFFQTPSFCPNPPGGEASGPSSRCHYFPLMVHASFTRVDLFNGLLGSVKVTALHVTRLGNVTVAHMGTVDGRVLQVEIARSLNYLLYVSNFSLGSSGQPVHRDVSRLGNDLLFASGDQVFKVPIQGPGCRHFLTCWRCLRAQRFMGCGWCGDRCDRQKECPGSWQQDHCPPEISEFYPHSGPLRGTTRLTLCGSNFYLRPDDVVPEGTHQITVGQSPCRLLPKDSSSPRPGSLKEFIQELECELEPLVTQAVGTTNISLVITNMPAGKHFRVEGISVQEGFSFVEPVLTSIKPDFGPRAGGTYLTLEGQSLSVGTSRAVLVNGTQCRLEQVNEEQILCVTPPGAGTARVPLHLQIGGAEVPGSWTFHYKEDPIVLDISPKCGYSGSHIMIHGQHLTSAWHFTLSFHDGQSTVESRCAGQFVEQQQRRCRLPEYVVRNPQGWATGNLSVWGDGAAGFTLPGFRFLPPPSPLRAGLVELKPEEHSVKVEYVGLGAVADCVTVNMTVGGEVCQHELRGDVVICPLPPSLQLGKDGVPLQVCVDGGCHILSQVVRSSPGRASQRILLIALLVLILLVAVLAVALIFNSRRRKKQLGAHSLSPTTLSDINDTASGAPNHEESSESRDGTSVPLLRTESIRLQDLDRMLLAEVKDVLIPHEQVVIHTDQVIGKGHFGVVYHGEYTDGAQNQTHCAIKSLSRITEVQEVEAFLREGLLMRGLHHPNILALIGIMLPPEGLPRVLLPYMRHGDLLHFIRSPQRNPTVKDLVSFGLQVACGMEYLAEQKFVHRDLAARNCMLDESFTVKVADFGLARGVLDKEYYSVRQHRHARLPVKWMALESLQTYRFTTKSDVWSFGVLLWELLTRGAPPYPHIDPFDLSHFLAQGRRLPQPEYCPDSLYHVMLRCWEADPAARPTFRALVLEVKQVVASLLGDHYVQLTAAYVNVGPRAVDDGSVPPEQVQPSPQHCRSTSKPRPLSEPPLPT

## MSP/MST1 (R&D systems; CAT #6244-MS-025) (from UniProt P26928 19-716) (ligand)
[1]
  FL CFU-e colony formation at mildly elevated Epo (50 mU/ml): > 2 fold

B1: Recombinant Murine IL17 (IL-17A) (PeproTech) (ligand, UniProt Q62386 26-158, looked up)
chain: AAIIPQSSACPNTEAKDFLQNVKVNLKVFNSLGAKVSSRRPSDYLNRSTSPWTLHRNEDPDRYPSVIWEAQCRHQRCVNAEGKLDHHMNSVLIQQEILVLKREPESCPFTFRVEKMLVGVGCTCVASIVRQAA
[2]
  adult BM CFU-e colony formation at lower Epo (50 mU/ml): 4 fold
  adult BM CFU-e colony formation at maximal levels of Epo: 50%
